Key:
E. coli CsgC (E. coli) = E. coli CsgC (E. coli) (UniProt P52107)
[1] = molecular target: E. coli CsgA, freshly purified monomer (E. coli) (UniProt P28307); assay: native MS; ion mobility-mass spectrometry (nESI, Synapt G2); CsgA and CsgC each diluted to 20 μM and mixed 1:1 in 20 mM ammonium acetate pH 7.4, incubated at 37 °C, time points 0, 3, 6 and 23 h
[2] = molecular target: E. coli CsgA fibrils (sonicated amyloid fibres of WT CsgA) (E. coli) (UniProt P28307); assay: SPR; BIAcore 3000, CM5 chip; sonicated CsgA fibrils amine-coupled at 1300 RU; gel-filtered CsgC injected 5 min at 4 to 0.25 μM (two-fold dilutions); phosphate buffer pH 7.5, 0.05% Tween, 25 °C; fitted with Scrubber2
[3] = molecular target: T1, E. coli CsgC (E. coli), P52107; assay: native MS; ion mobility-mass spectrometry (nESI, Synapt G2); CsgA and CsgC each diluted to 20 μM and mixed 1:1 in 20 mM ammonium acetate pH 7.4, incubated at 37 °C, time points 0, 3, 6 and 23 h; conditions: remark: other sources report otherwise
T1 chain: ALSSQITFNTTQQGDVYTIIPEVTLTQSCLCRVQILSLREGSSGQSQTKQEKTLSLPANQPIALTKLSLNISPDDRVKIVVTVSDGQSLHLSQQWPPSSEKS

E. coli CsgA, freshly purified monomer (from UniProt P28307 21-151) (natural protein)
ThT binding assay: increase in lag time of CsgA eluted from the CsgC-linked column compared with CsgA eluted from the Tris-quenched column (E. coli CsgC (E. coli)): 51 min | ThT binding assay: increase in time to half maximum ThT fluorescence of CsgA eluted from the CsgC-linked column compared with CsgA eluted from the Tris-quenched column (E. coli CsgC (E. coli)): 52 min

E. coli CsgC (from UniProt P52107 9-110) (natural protein)
stoichiometry N [1]: 1 | Kd [2]: 360 nM | koff [2]: 0.00118 s⁻¹

B1: E. coli CsgC, P52107 9-110 (natural protein)
chain: T1 chain
stoichiometry N [3]: 2
